Test results from patent US11851680B2, “Genetically-modified immune cells comprising a microRNA-adapted shRNA (shRNAmiR)” (Precision Biosciences, Inc., priority 2019, dated 2023).

B1: TGF 1-2x.5: engineered meganuclease targeting the TGFBR2 gene (SEQ ID NO: 64) (protein)
chain: MNTKYNKEFLLYLAGFVDGDGSIYACIEPDQSRKFKHTLRLYFEVGQKTQRRWFLDKLVDEIGVGYVYDRGSVSNYRLSEIKPLHNFLTQLQPFLKLKQKQANLVLKIIEQLPSAKESPDKFLEVCTWVDQIAALNDSKTRKTTSETVRAVLDSLPGSVGGLSPSQASSAASSASSSPGSGISEALRAGAGSGTGYNKEFLLYLAGFVDGDGSIFACITPSQTHKFKHRLFLRFTVGQKTQRRWFLDKLVDEIGVGYVVDSGSVSEYRLSQIKPLHNFLTQLQPFLKLKQKQANLVLKIIEQLPSAKESPDKFLEVCTWVDQIAALNDSKTRKTTSETVRAVLDSLSEKKKSSP
B2: TGF 1-2L.296: engineered meganuclease targeting the TGFBR2 gene (SEQ ID NO: 65) (protein)
chain: MNTKYNKEFLLYLAGFVDGDGSIYACITPKQRSKFKHSLRLRFTVGQKTQRRWFLDKLVDEIGVGYVLDGGGVSEYRLSEIKPLHNFLTQLQPFLKLKQKQANLVLKIIEQLPSAKESPDKFLEVCTWVDQIAALNDSKTRKTTSETVRAVLDSLPGSVGGLSPSQASSATSSASSSPGSGISEALRAGAGSGTGYNKEFLLYLAGFVDGDGSIYACIEPDQSRKFKHTLRLYFEVGQKTQRRWFLDKLVDEIGVGYVYDRGSVSNYRLSEIKPLHNFLTQLQPFLKLKQKQANLVLKIIEQLPSAKESPDKFLEVCTWVDQIAALNDSKTRKTTSETVRAVLDSLSEKKKSSP

Legend:
TGFBR2 = TGFBR2 surface expression (knockdown or knockout) on T cells by flow cytometry; type: cell-based, human; conditions: for TGFBR2 knockout frequency, percent of cells in the culture: 6 days after electroporation of nuclease RNA, vs mock nucleofected
Protocol: Nucleofection was carried out in the presence of 2 μg/1×10^6 cells of linearized DNA encoding the CAR and one of the candidate TGFBR2 shRNAmiRs.
Cells were analyzed for TGFBR2 expression at d7, 10, and 14 post-nucleofection using the anti-TGFBR2 antibody MM0056-4F14 (Abcam), and an anti-mouse kappa light chain secondary antibody conjugated to PE (BioLegend). CAR+ cells were identified using anti-FMC63-Alx647, produced in house. The mean fluorescence intensity (MFI) of TGFBR2 signal on the CAR+ was compared to that on the CAR− cells and a percent knockdown was calculated. The frequency of CAR+ events was consistent across the different constructs, ranging from 4.9% to 6.7% (FIG. 12).
Electroporated cells were cultured for 6 days in complete X-VIVO15 medium supplemented with 30 ng/ml IL-2 prior to an analysis of editing efficiency. This was achieved by staining cells with an anti-TGFβRII antibody (Abcam clone MM0056-4F14) followed by anti-mouse IgG κ light chain conjugated to PE (BioLegend clone RMK45). Data were acquired on a Beckman-Coulter CytoFLEX-S or LX.
Mock nucleofected T cells were stained with the anti-TGFβRII antibody and the secondary antibody or the secondary antibody alone to serve as positive and negative controls, respectively, for surface detection of TGFβRII.
A further study was conducted in which the activity of CAR T cells was assessed following various alterations to the TGFβ pathway. […] In some variants, a sequence encoding a shRNAmiR was also introduced at the TRC 1-2 site in the same cassette as the CAR (positioned between the CAR stop codon and a polyA sequence). In one variant, the shRNAmiR was a TGFBR2-specific shRNAmiR (construct 72154) while in another variant a shRNAmiR that is irrelevant to TGFβ function (targeting B2M—construct 72155) was introduced. A third variant of CAR T cells was produced using construct 72155, but they were edited at the TGFBR2 locus using the TGF1-2L296 nuclease described above in order to knockout the TGFBR2 gene. CAR T cells in the TGFBR2 KO group contained 60% KO.

SMAD2/3 = assay: Phosphorylated SMAD2/3 after TGFβ1 stimulation by flow cytometry; type: cell-based, human; conditions: BCMA CAR T cells, TGFβ1 500 ng/ml
Excerpt: T cells electroporated with TRC1-2L.1592 were immediately transduced with AAV72112 (encoding the anti-CD19 FMC63 CAR described in Example 1 and a TGFBR2-specific shRNAmiR inserted after the CAR stop codon and before a polyA sequence) or AAV7206 (encoding a control FMC63 CAR with no RNAi). Following six days of culture, CD3-CAR+ cells were purified by FACS using methods described above. In addition, TGFβRII-cells from TGF1-2L.296-edited cultures were sorted in this manner. Sorted cells were rested in serum free medium overnight before being stimulated with 500 ng/ml of recombinant human TGFβ1, the ligand for TGFBR2 (PeproTech). Thirty minutes following TGFβ1 addition, cells were harvested and immediately prepared for staining using Phos-Flow lyse-fix buffer and Phos-Flow Fix-Perm buffer III (BD Biosciences) according to the manufacturer's instructions. Fixed cells were stained with anti-pSMAD2/3-PE (BD Biosciences) and data were acquired on a Beckman-Coulter CytoFLEX-LX. […]
BCMA CAR T cells having knock out of TGFBR2 were prepared with the TGF 1-2L.296 meganuclease and cells having knock down of TGFBR2 were prepared with the 72112 TGFBR2 shRNAmiR as described above. The respective BCMA CAR T cell groups were treated with TGFβ1 (500 ng/ml) and all cell groups were harvested and analyzed as described above. […]

Molecule | TGFBR2 knockout frequency, percent of cells in the culture (TGFBR2) | TGFBR2 KO in CAR T cell group (TGFBR2; BCMA CAR T cells, construct 72155 plus nuclease) | pSMAD2/3 level after TGFβ1 (SMAD2/3)
B1 | 38.6% |  | 
B2 | 69% | 60% | decreased pSMAD2/3 to levels comparable to, or lower than, the untreated BCMA CAR T cell control
